Assay results reported in paper PMC9482650, “Quantitative fragmentomics allow affinity mapping of interactomes” (Nature Communications, 2022).

T1: MPP7, Q5T2T1
T1 sequence (Q5T2T1 134-230, limits assumed, looked up): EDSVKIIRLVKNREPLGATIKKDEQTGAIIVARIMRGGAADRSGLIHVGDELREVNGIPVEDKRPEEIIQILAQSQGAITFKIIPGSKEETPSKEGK

T2: LIN7B, Q9HAP6
T2 sequence (Q9HAP6 88-185, limits assumed, looked up): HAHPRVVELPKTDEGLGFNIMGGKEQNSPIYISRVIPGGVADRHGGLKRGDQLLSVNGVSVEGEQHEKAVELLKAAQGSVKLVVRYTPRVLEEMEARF

T3: GRIP1_4, Q9Y3R0
T3 sequence (Q9Y3R0 467-571, limits assumed, looked up): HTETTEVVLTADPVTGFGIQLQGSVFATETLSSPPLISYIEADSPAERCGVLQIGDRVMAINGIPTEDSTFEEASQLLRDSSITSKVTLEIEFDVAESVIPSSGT

T4: HTRA3, P83110
T4 sequence (P83110 354-453, limits assumed, looked up): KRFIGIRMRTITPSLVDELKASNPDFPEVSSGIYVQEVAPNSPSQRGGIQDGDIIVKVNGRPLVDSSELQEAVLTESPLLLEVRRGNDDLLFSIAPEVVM

T5: GRIP1_3, Q9Y3R0
T5 sequence (Q9Y3R0 247-346, limits assumed, looked up): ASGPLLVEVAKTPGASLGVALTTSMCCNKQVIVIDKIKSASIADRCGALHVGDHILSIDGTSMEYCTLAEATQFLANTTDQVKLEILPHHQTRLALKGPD

T6: LIN7C, Q9NUP9
T6 sequence (Q9NUP9 88-185, limits assumed, looked up): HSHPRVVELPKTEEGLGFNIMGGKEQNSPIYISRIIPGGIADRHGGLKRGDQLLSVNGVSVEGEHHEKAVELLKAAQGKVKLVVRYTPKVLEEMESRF

T7: DLG3_2, Q92796
T7 sequence (Q92796 221-321, limits assumed, looked up): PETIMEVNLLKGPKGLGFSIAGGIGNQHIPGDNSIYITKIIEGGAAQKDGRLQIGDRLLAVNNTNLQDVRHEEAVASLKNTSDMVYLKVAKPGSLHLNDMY

T8: DFNB31_2, Q9P202
T8 sequence (Q9P202 274-371, limits assumed, looked up): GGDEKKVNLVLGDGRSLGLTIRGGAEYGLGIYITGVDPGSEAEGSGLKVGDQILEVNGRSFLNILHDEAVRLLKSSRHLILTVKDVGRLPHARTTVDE

T9: PDZRN3_1, Q9UPQ7
T9 sequence (Q9UPQ7 244-349, limits assumed, looked up): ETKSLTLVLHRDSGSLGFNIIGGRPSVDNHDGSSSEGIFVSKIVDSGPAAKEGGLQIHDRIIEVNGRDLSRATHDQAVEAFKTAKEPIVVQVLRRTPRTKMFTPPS

T10: APBA1_1, Q02410
T10 sequence (Q02410 651-752, limits assumed, looked up): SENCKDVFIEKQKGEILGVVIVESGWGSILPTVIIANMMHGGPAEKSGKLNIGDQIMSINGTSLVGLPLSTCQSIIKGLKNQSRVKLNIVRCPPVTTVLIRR

T11: ARHGAP21, Q5T5U3
T11 sequence (Q5T5U3 45-169, limits assumed, looked up): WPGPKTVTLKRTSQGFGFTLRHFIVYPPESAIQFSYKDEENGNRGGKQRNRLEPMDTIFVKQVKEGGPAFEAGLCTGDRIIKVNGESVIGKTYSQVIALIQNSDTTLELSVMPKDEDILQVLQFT


Legend:
Test in all cases: holdup assay
Design in all cases: key: below the threshold = too weak to quantify, mostly under pKd 3.1 to 4
Conditions in all cases: plain residues with an end cap or a label only (N-terminal biotin on a linker: ado-ado)
MPP7, Q5T2T1 = molecular target: T1, MPP7, Q5T2T1
GRID2IP_1, A4D2P6 = molecular target: GRID2IP_1, A4D2P6
GRID2IP_1, A4D2P6, sequence (A4D2P6 1-87): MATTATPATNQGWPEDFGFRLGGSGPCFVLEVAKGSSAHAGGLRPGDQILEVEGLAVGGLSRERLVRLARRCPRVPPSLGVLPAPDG

NHERF4_2, Q86UT5 = molecular target: NHERF4_2, Q86UT5
NHERF4_2, Q86UT5, sequence (Q86UT5 220-308): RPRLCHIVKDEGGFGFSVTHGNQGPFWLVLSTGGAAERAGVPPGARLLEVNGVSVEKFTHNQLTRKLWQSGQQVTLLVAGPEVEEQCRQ

GRIP2_5, Q9C0E4 = molecular target: GRIP2_5, Q9C0E4
GRIP2_5, Q9C0E4, sequence (Q9C0E4 544-642): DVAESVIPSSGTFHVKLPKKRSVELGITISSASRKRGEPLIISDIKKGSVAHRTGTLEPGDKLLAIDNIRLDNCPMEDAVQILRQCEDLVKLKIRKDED

GIPC2, Q8TF65 = molecular target: GIPC2, Q8TF65
GIPC2, Q8TF65, sequence (Q8TF65 112-203): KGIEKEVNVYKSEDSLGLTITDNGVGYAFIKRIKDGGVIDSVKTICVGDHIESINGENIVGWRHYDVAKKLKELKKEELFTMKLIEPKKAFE

LIN7B, Q9HAP6 = molecular target: T2, LIN7B, Q9HAP6
LNX1_1, Q8TBB1 = molecular target: LNX1_1, Q8TBB1
LNX1_1, Q8TBB1, sequence (Q8TBB1 261-371): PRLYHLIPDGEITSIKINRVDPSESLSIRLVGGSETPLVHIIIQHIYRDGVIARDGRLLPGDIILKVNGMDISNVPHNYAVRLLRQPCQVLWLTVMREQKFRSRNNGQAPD

GRIP1_4, Q9Y3R0 = molecular target: T3, GRIP1_4, Q9Y3R0
FRMPD4, Q14CM0 = molecular target: FRMPD4, Q14CM0
FRMPD4, Q14CM0, sequence (Q14CM0 67-160): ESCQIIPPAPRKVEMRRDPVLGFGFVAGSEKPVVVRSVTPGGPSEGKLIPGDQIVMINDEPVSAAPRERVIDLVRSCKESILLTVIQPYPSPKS

HTRA3, P83110 = molecular target: T4, HTRA3, P83110
GRIP1_3, Q9Y3R0 = molecular target: T5, GRIP1_3, Q9Y3R0
LIN7C, Q9NUP9 = molecular target: T6, LIN7C, Q9NUP9
DLG3_2, Q92796 = molecular target: T7, DLG3_2, Q92796
DLG4_1, P78352 = molecular target: DLG4_1, P78352
DLG4_1, P78352, sequence (P78352 62-152): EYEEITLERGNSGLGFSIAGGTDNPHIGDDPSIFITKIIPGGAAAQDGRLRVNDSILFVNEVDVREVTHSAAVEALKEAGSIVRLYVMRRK

FRMPD3, Q5JV73 = molecular target: FRMPD3, Q5JV73
FRMPD3, Q5JV73, sequence (Q5JV73 12-100): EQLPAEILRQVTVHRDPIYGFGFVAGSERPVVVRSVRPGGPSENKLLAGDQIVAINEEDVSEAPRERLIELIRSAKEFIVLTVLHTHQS

GORASP1, Q9BQQ3 = molecular target: GORASP1, Q9BQQ3
GORASP1, Q9BQQ3, sequence (Q9BQQ3 1-208): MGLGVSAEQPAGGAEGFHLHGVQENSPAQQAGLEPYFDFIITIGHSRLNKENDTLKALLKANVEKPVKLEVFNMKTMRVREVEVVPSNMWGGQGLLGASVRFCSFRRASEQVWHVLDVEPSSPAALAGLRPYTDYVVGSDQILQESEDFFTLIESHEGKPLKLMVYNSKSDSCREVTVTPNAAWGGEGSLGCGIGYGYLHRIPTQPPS

MAGI2_3, Q86UL8 = molecular target: MAGI2_3, Q86UL8
MAGI2_3, Q86UL8, sequence (Q86UL8 600-682): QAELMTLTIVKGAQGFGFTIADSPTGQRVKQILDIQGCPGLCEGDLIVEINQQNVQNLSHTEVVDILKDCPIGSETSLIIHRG

Inadl_2, Q8NI35 = molecular target: Inadl_2, Q8NI35
Inadl_2, Q8NI35, sequence (Q8NI35 238-335): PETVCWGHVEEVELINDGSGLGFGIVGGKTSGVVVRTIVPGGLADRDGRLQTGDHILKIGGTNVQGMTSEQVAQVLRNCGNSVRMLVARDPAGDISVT

DFNB31_2, Q9P202 = molecular target: T8, DFNB31_2, Q9P202
GORASP2, Q9H8Y8 = molecular target: GORASP2, Q9H8Y8
PDZRN3_1, Q9UPQ7 = molecular target: T9, PDZRN3_1, Q9UPQ7
APBA1_1, Q02410 = molecular target: T10, APBA1_1, Q02410
MAGI2_4, Q86UL8 = molecular target: MAGI2_4, Q86UL8
MAGI2_4, Q86UL8, sequence (Q86UL8 772-865): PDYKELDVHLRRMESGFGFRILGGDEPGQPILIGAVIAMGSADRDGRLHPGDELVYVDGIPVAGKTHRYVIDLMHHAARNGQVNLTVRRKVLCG

CASK, O14936 = molecular target: CASK, O14936
CASK, O14936, sequence (O14936 487-570): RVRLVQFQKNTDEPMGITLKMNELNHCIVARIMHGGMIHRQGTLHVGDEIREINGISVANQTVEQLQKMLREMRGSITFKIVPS

ARHGAP21, Q5T5U3 = molecular target: T11, ARHGAP21, Q5T5U3

| Binder | pKd (MPP7, Q5T2T1) | pKd (GRID2IP_1, A4D2P6) | pKd (NHERF4_2, Q86UT5) | pKd (GRIP2_5, Q9C0E4) | pKd (GIPC2, Q8TF65) | pKd (LIN7B, Q9HAP6) | pKd (LNX1_1, Q8TBB1) | pKd (GRIP1_4, Q9Y3R0) | pKd (FRMPD4, Q14CM0) | pKd (HTRA3, P83110) | pKd (GRIP1_3, Q9Y3R0) | pKd (LIN7C, Q9NUP9) | pKd (DLG3_2, Q92796) | pKd (DLG4_1, P78352) | pKd (FRMPD3, Q5JV73) | pKd (GORASP1, Q9BQQ3) | pKd (MAGI2_3, Q86UL8) | pKd (Inadl_2, Q8NI35) | pKd (DFNB31_2, Q9P202) | pKd (GORASP2, Q9H8Y8) | also measured |
| --- | --- | --- | --- | --- | --- | --- | --- | --- | --- | --- | --- | --- | --- | --- | --- | --- | --- | --- | --- | --- | --- |
| PPYRHRNTVV [ERBB4, Q15303] | below the threshold | 3.89 | below the threshold | below the threshold | 3.6 | below the threshold | 4.23 | below the threshold | below the threshold | below the threshold | below the threshold | below the threshold | 4.79 | 4.88 | below the threshold | 4.19 | below the threshold | below the threshold | below the threshold | 4.26 | pKd (PDZRN3_1, Q9UPQ7): 3.54; pKd (APBA1_1, Q02410): below the threshold; pKd (MAGI2_4, Q86UL8): 4.43; pKd (CASK, O14936): below the threshold; pKd (ARHGAP21, Q5T5U3): 4.08 |
| CLREWCDAFL [BANF1, O75531] | below the threshold | below the threshold | below the threshold | below the threshold | below the threshold | 3.94 | below the threshold | below the threshold | 4.72 | 4.17 | below the threshold | 3.66 | 4.15 | below the threshold | 3.66 | 3.82 | below the threshold | below the threshold | below the threshold | below the threshold | pKd (PDZRN3_1, Q9UPQ7): below the threshold; pKd (APBA1_1, Q02410): 3.72; pKd (MAGI2_4, Q86UL8): 3.73; pKd (CASK, O14936): 3.52; pKd (ARHGAP21, Q5T5U3): 4.41 |
| GSGAVEMESV [AQP6, Q13520] | below the threshold | below the threshold | below the threshold | below the threshold | below the threshold | below the threshold | below the threshold | below the threshold | below the threshold | below the threshold | below the threshold | below the threshold | below the threshold | below the threshold | below the threshold | below the threshold | below the threshold | below the threshold | below the threshold | below the threshold | pKd (PDZRN3_1, Q9UPQ7): below the threshold; pKd (APBA1_1, Q02410): below the threshold; pKd (MAGI2_4, Q86UL8): below the threshold; pKd (CASK, O14936): below the threshold; pKd (ARHGAP21, Q5T5U3): 3.91 |

Further lines, with some results ahead:

| pKd (MPP7, Q5T2T1) | pKd (GRID2IP_1, A4D2P6) | pKd (NHERF4_2, Q86UT5) | pKd (GRIP2_5, Q9C0E4) | pKd (GIPC2, Q8TF65) | pKd (LIN7B, Q9HAP6) | pKd (LNX1_1, Q8TBB1) | pKd (GRIP1_4, Q9Y3R0) | pKd (FRMPD4, Q14CM0) | pKd (HTRA3, P83110) | pKd (GRIP1_3, Q9Y3R0) | pKd (LIN7C, Q9NUP9) | pKd (DLG3_2, Q92796) | pKd (DLG4_1, P78352) | pKd (FRMPD3, Q5JV73) | pKd (GORASP1, Q9BQQ3) | pKd (MAGI2_3, Q86UL8) | pKd (Inadl_2, Q8NI35) | pKd (DFNB31_2, Q9P202) | pKd (GORASP2, Q9H8Y8) | Binder | also measured |
| --- | --- | --- | --- | --- | --- | --- | --- | --- | --- | --- | --- | --- | --- | --- | --- | --- | --- | --- | --- | --- | --- |
| below the threshold | below the threshold | below the threshold | below the threshold | below the threshold | below the threshold | below the threshold | below the threshold | 3.7 | below the threshold | below the threshold | below the threshold | below the threshold | below the threshold | below the threshold | below the threshold | below the threshold | below the threshold | below the threshold | below the threshold | IKAIVDLTGL [TRAF2, Q12933] | pKd (PDZRN3_1, Q9UPQ7): below the threshold; pKd (APBA1_1, Q02410): below the threshold; pKd (MAGI2_4, Q86UL8): below the threshold; pKd (CASK, O14936): below the threshold; pKd (ARHGAP21, Q5T5U3): 3.74 |
| below the threshold | below the threshold | below the threshold | below the threshold | 3.65 | 4.12 | 4.34 | below the threshold | below the threshold | below the threshold | below the threshold | 4.29 | 5.27 | 4.68 | below the threshold | below the threshold | 4.11 | below the threshold | below the threshold | below the threshold | RRISSLESEV [GRIN2C, Q14957] | pKd (PDZRN3_1, Q9UPQ7): 4.24; pKd (APBA1_1, Q02410): below the threshold; pKd (MAGI2_4, Q86UL8): 3.95; pKd (CASK, O14936): below the threshold; pKd (ARHGAP21, Q5T5U3): below the threshold |
| below the threshold | below the threshold | below the threshold | below the threshold | below the threshold | below the threshold | below the threshold | below the threshold | 3.5 | below the threshold | below the threshold | below the threshold | below the threshold | below the threshold | below the threshold | below the threshold | below the threshold | below the threshold | below the threshold | below the threshold | SARSRLSSNL [HCN2, Q9UL51] | pKd (PDZRN3_1, Q9UPQ7): 3.63; pKd (APBA1_1, Q02410): below the threshold; pKd (MAGI2_4, Q86UL8): below the threshold; pKd (CASK, O14936): below the threshold; pKd (ARHGAP21, Q5T5U3): 4.37 |
